What is called IC50 is the concentration that inhibits the measured activity by half. A high value points to a need for much substance. The EC50 is the midpoint of the concentration-response curve. A higher EC50 goes with a need for much substance. As usually defined, the Kd is the concentration at which binding is half-saturated. Read a low Kd as higher affinity.

For one experiment, the target named is T1, mFc-CD70.
T1 sequence (P32970 whole entry, species assumed, looked up): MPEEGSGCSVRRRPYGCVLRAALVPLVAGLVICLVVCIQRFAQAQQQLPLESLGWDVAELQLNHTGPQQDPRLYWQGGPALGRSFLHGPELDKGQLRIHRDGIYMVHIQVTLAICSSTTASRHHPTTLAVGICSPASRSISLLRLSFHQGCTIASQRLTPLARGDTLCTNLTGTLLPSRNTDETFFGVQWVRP
The experiment in a line: competition ELISA: blocks mFc-CD70 (75 ng/ml) binding to coated human CD27-His.

The target of experiment [1] is T2, human CD70-His (human, UniProt P32970 39-193, limits assumed).
T2 construct: also called 重组CD70蛋白; human CD70-His (Cat#CDL-H82D7); not shown: His tag
T2 sequence (looked up): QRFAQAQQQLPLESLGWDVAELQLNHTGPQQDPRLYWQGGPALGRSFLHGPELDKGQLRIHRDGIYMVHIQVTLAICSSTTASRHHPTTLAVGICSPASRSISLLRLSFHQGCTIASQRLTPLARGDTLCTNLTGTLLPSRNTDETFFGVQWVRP
Kind of experiment: ELISA, human CD70-His coated 0.5 ug/ml, HRP-anti-human Fc. In general terms: ELISA stands for enzyme-linked immunosorbent assay.

The next experiment deals with T3, CD70 on 卵巢癌细胞SKOV3 (UniProt P32970 1-193, limits assumed).
T3 construct: whole, on cells; also called 肿瘤细胞
T3 sequence (looked up): T1 sequence (P32970 whole entry, species assumed, looked up)
Kind of experiment: flow cytometry (MFI) on SKOV3 cells, goat anti-human IgG Fc-FITC. A general note: A flow cytometer gives signals particle by particle.

For a further experiment, the target named is T4, mouse CD70-His (mouse, UniProt O55237 45-195, limits assumed).
T4 construct: also called 鼠CD70; not shown: His tag
T4 sequence (looked up): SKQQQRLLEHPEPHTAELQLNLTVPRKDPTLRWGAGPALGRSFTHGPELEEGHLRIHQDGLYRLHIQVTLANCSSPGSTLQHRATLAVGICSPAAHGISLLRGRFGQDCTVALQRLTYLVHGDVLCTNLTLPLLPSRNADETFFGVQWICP
Kind of experiment: ELISA, mouse CD70-His coated 0.5 ug/ml, HRP-anti-human Fc.

Experiment [2] concerns the target T2, human CD70-His. The experiment in a line: BLI (Fortebio), AHC sensor, antibody loaded at 4 ug/ml, human CD70-His trimer 60 nM in solution.
In another experiment the target is T5, cyno-CD70-His (cynomolgus monkey, UniProt A0A2K5WTU9 39-190).
T5 construct: also called 食蟹猴CD70蛋白; 猴CD70; not shown: His tag
T5 sequence: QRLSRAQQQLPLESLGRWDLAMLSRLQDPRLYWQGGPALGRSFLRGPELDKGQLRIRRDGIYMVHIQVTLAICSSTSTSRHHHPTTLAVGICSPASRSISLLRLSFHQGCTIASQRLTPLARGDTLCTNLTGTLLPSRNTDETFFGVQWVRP
Kind of experiment: ELISA, cyno-CD70-His coated 0.5 ug/ml, HRP-anti-human Fc.

B1: CHO细胞表达的含有人IgG-Fc结构域的CD70纳米抗体VHH-B3-Fc (Fc fusion)
chain: LQESGGGSVQAGGSLRLSCAASGIIVNDGCMAWFRQVPGKEREGVAGIVIGEYGGGTTYYADSVKGRFTISRDRAKNTLYLQMNSLKPEDTAMYYCAADQWASGGCTSIATFSDEFDYWGQGTQVTVSS
notes: Order VHH then Fc follows the printed name; also called XJ-B3; VHH-B3 (as named in the results of the Fc-format assays); not shown: human IgG Fc domain
In turn, B1 displayed an IC50 in the experiment with mFc-CD70 of 0.06 µg/mL. In addition, the EC50 was determined as 0.0251 µg/mL with human CD70-His [1] and 0.374 nM with CD70 on 卵巢癌细胞SKOV3. For the same molecule, the binding result in the experiment with mouse CD70-His is reported as “no binding”. In the experiment with human CD70-His [2], this molecule displayed an equilibrium dissociation constant (Kd) below 0.001 nM.

B2: CHO细胞表达的含有人IgG-Fc结构域的CD70纳米抗体VHH-B6-Fc (Fc fusion)
chain: QVQLQESGGGSVQAGGSLRLSCVASDLIVNDGCMAWFRQVPGKEHEGVARIAIPTTPGSTLYADSVKGRFTISRDGAKNTLYLQMNSLKPEDTAVYYCAADQWASRGCTAIATIPAEFDYWGQGTQVTVSS
notes: Order VHH then Fc follows the printed name; also called XJ-B6; VHH-B6 (as named in the results of the Fc-format assays); not shown: human IgG Fc domain
In the experiment with mFc-CD70, B2 had a half-inhibitory concentration (IC50) of 0.0576 µg/mL. The values for the EC50 with human CD70-His [1], with cyno-CD70-His and with CD70 on 卵巢癌细胞SKOV3 were 0.0244 µg/mL, 0.00571 µg/mL and 1.74 nM, respectively. In addition, the binding result in the experiment with mouse CD70-His was “no binding”. Besides, in the experiment with human CD70-His [2], the Kd is below 0.001 nM.

Source of the values: CN114262377A (XINJIANG YOUMAI BIOTECHNOLOGY CO LTD, dated 2022).
